# “Also recorded” adds a separate entry of the source. Non-standard residues stand in square brackets, D forms with d. Residues, ends and D or L forms follow the SMILES beside them. No end group written: not given here. *: point of attachment. Sta = CC(C)C[C@H](N)[C@@H](O)CC(=O)O; Mca = COc1ccc2c(CC(=O)*)cc(=O)oc2c1; DNP = 2,4-Dinitrophenyl, quencher; Isovaleryl = CC(C)CC(=O)*
# What was measured:
# OMA1 [1] = target: T1, OMA1 (Homo sapiens, UniProt Q96E52); conditions: prior studies (refs 12, 24); cited from earlier work
# T1 sequence (Q96E52 144-524): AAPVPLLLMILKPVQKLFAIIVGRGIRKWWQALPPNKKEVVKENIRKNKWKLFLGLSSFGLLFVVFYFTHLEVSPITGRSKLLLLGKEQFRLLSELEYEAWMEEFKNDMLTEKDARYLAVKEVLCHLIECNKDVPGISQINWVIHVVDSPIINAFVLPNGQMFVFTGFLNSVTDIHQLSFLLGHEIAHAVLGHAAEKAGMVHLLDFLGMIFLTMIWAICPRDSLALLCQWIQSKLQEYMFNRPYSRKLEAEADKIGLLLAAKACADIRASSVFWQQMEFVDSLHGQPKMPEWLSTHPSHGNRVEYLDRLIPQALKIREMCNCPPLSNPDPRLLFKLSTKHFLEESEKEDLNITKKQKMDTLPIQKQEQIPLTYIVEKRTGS
# OMA1 [2] = target: T2, OMA1 (Rattus norvegicus, UniProt D3ZS74); assay: OMA1 activity assay in rat renal mitochondrial lysates after cold storage / transplantation; assay type: biochemical; conditions: cold storage alone or followed by transplant
# T2 construct: Renal cell lysates from normal rat kidney (NRK) epithelial cell line were prepared; endogenous in cells; host or cells: NRK-52E (ATCC CRL-1571), RIPA lysate, 5 µg protein per well
# T2 sequence (D3ZS74 123-504): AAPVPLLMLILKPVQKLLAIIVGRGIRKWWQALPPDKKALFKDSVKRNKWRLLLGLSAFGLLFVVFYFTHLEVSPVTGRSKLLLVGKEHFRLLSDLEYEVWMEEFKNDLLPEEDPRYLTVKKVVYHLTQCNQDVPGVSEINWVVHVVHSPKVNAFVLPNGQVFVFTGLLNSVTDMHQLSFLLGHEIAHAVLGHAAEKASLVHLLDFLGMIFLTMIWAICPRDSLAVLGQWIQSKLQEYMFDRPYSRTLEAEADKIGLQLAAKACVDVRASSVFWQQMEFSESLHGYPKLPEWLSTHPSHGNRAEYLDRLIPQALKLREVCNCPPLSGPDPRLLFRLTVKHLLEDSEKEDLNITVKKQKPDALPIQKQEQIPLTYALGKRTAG
# Source text: Long-term renal function is compromised in patients receiving deceased donor kidneys which require cold storage exposure prior to transplantation. It is established that extended cold storage plus transplantation of kidneys induces renal mitochondrial dysfunction. To assay OMA1 activity under stress conditions known to induce mitochondrial dysfunction an exemplary reporter molecule of the invention was employed in mitochondrial lysates from control kidneys (CTRL), sham surgery (SH), cold storage alone (CS), or cold storage and transplantation (CS/TX) conditions.
# Our OMA1 activity assay utilizes an 8-mer peptide derived from the cleavage sequence of OPA1, which is reported to be specific of OMA1 which is referred as the OPA1 FRET substrate. The peptide contains a fluorogenic MCA moiety on the N-terminus and a DNP quencher moiety on the C-terminus (FIG. 1), which was custom-synthesized by LifeTein LLC and handled accordingly to the manufacturer's instructions. […] Fluorescence was recorded (excitation/emission of 320/405 nm) once per minute for 30 min at 37° C. using a fluorescent plate reader (SpectraMax M2e, Molecular Devices equipped with SoftMax Pro v5 software).
# OMA1 [3] = target: T2, OMA1; assay: OMA1 activity assay (OPA1 FRET substrate) in NRK cell lysates; assay type: biochemical; conditions: for decrease of OMA1 activity compared to the standard substrate sequence: modified 8-mer FRET substrate vs AFRATDHG
# Procedure: Normal rat kidney cells (NRK-52E; ATCC No. CRL-1571) were maintained in a humidified incubator with 5% CO2, 95% air at 37° C. in DMEM containing 5% fetal bovine serum. Renal cell lysates from normal rat kidney (NRK) epithelial cell line were prepared by using radioimmunoprecipitation assay (RIPA) buffer (Pierce) with 1 mM PMSF (Sigma), 1.2 mM Na3VO4 (Sigma), 2.5 mM NaF (Sigma), 1 mM DTT (Sigma), 1× of Halt Protease & Phosphatase inhibitor cocktail (Thermo Scientific), and 5 mM EDTA (Thermo Scientific). Protein concentrations were determined by Coomassie Plus Protein Assay Reagent (Pierce).
# Our OMA1 activity assay utilizes an 8-mer peptide derived from the cleavage sequence of OPA1, which is reported to be specific of OMA1 which is referred as the OPA1 FRET substrate. The peptide contains a fluorogenic MCA moiety on the N-terminus and a DNP quencher moiety on the C-terminus (FIG. 1), which was custom-synthesized by LifeTein LLC and handled accordingly to the manufacturer's instructions. Using a final 100 μl reaction volume and black, opaque 96 well plates (Costar), the reagents were added in the following order: 1) OMA1 activity assay buffer (50 mM of Tris/HCl, pH=7.5, 40 mM of KCl), 2) 5 μg of protein sample, 3)+/−200 μM of the zinc chelator N,N,N′,N′-Tetrakis (2-pyridylmethyl)ethylenediamine (TPEN) resuspended in 100% ethanol and lastly, 4) the OPA1 FRET substrate (5 μM final concentration; dissolved in DMSO). Fluorescence was recorded (excitation/emission of 320/405 nm) once per minute for 30 min at 37° C. using a fluorescent plate reader (SpectraMax M2e, Molecular Devices equipped with SoftMax Pro v5 software).
# For the statistical analysis, the average fluorescence of the OPA1 FRET substrate alone was measured (<150 relative FLS units) and that value was subtracted from the sample values. The values were reported as a difference of TPEN inhibition [(sample X)−(sample X+TPEN)] where the slopes between 0-30 min were calculated (by linear regression) and each treatment were compared to appropriate controls. Thus, OMA1 activity was calculated by […] to enhance specificity.
# OMA1 [4] = target: T2, OMA1; assay: as above; assay type: biochemical; conditions: untreated NRK cell lysates (5 μg), substrate 1-30 μM, Michaelis-Menten
# OMA1 [5] = assay: Live-cell OMA1 activity assay with mitochondrial targeted FRET peptide; assay type: cell-based, rat; conditions: NRK-52E cells, FRET peptide 10 μM, 4 hr, antimycin A 50 nM, 30 min, preliminary
# Source text: Live-Cell OMA1 activity assay: To deliver the FRET OMA1 peptide to mitochondria in living cells, we utilized a modified short Szeto-Schiller (SS) peptide sequence1 attached to the amino terminus of the 8 amino acid FRET sequence (custom synthesized by LifeTein) (FIG. 5A). […] Small molecule/peptide library subsets or novel peptides will be screened for inhibitory activity using this live-cell OMA1 assay.
# Live-cell OMA1 activity assay preliminary results: To deliver the FRET peptide to mitochondria in living cells, we have used a modified short Szeto-Schiller (SS) mitochondrial targeting peptide sequence1 (d-arginine, dimethyl tyrosine, ornithine, tryptophan) attached to the amino terminus of the eight amino acid FRET sequence (FIG. 5A). Normal rat kidney (NRK-52E; ATCC No. CRL-1571) cells were plated on black 96-well cell culture plates (10,000 cells/well). The next day, the cell permeable peptide was added to cells (10 μM; 4 hr; 37° C.) followed by exposure to ATP depletion/antimycin A (50 nM; 30 min) and OMA1 activity measured (ex/em 320/405) using a plate reader. […] Future studies will optimize the mitochondrial targeting sequence so that the highest efficiency of mitochondrial localaization without altering mitochondrial oxidant levels will be achieved, which we predict will yield the highest sensitivity for the live-cell OMA1 activity assay.
# [6] = Table 2, slope over 30 min, % comparison to AFRATDHG, 2-3 experiments/substrate
# [7] = Table 1, average slope over 30 min compared to AFRATDHG substrate, n = 3
compound,measurement,setting,value
CCOC(=O)[C@H]1O[C@@H]1C(=O)N[C@@H](CC(C)C)C(=O)NCCC(C)C [E64D],prevention of OMA1-dependent OPA1 cleavage,OMA1 [1],do not prevent OMA1-dependent OPA1 cleavage
"c1ccc(CN(CCN(Cc2ccccn2)Cc2ccccn2)Cc2ccccn2)nc1 [TPEN, N,N,N′,N′-Tetrakis (2-pyridylmethyl)ethylenediamine]",effect on reporter fluorescence (FLS) increase,OMA1 [2],effectively inhibits FLS increase; also recorded: effectively inhibits the reporter molecule activation
same,"effect on OMA1 activity (slope, FLS/min)",OMA1 [3]; NRK cell lysates with TPEN (200 μM in method) vs untreated lysates,reduced OMA1 activity; also recorded: dramatically decreased fluorescence
CCCCC[C@H](CC(=O)NO)C(=O)N[C@H](C(=O)N1CCC[C@H]1CO)C(C)C [actinonin],"effect on OMA1 activity (slope, FLS/min)","OMA1 [3]; NRK cell lysates, 0.5-1 μM, vs untreated lysates","neither the broad-spectrum MMP inhibitor, batimastat (0.5-1 μM), or the meprin A inhibitor, actinonin (0.5-1 μM), altered OMA1 activity"
same,"effect on OMA1 activity (slope, FLS/min)","OMA1 [3]; NRK cell lysates, 0.5-1 μM, vs untreated lysates, listed as Actinonin",Only TPEN reduced OMA1 activity
CC(C)CC(=O)N[C@H](C(=O)N[C@H](C(=O)N[C@@H](CC(C)C)[C@@H](O)CC(=O)N[C@@H](C)C(=O)N[C@@H](CC(C)C)[C@@H](O)CC(=O)O)C(C)C)C(C)C [pepstatin A] (Isovaleryl-VV[Sta]A[Sta]-OH),prevention of OMA1-dependent OPA1 cleavage,OMA1 [1],do not prevent OMA1-dependent OPA1 cleavage
"AARAAAAA (Mca-AARAAAAA; not fully specified (C-terminus); also: FRET fluorophore and quencher, sites not given here) [FRET substrate with RA motif flanked by alanine residues]",OMA1 Activity,OMA1 [3]; [6],35%
same,decrease of OMA1 activity compared to the standard substrate sequence,OMA1 [3],65%
AFKATDHG (Mca-AFKATDHG; not fully specified (C-terminus); also: FRET fluorophore and quencher) [FRET substrate with Arg changed to Lys],OMA1 Activity,OMA1 [3]; [6],61%
same,decrease of OMA1 activity compared to the standard substrate sequence,OMA1 [3],~40%
"AFRATDHG (Mca-AFRATDHG-{DNP}) [MCA-AFRATDHG-DNP, eight amino acid OPA1 S1-site peptide with MCA fluorophore on the N-terminus and DNP quencher on the C-terminus]",Vmax for cleavage of the OPA1 FRET substrate,OMA1 [4],34.6 FLS/min
same,Km,OMA1 [4]; read-out: Km for cleavage of the OPA1 FRET substrate,7.1 µM
same,OMA1 Activity,OMA1 [3]; [7],100%
same,OMA1 Activity,OMA1 [3]; [6],100%
"ATDHGSES (Mca-ATDHGSES; not fully specified (C-terminus); also: FRET fluorophore and quencher) [eight amino acid FRET peptide from OPA1 downstream of the cleavage site, no RA motif]",fluorescence of FRET peptide without R-A sequence,OMA1 [3]; FRET peptide downstream of cleavage site,abolished fluorescence
same,OMA1 Activity,OMA1 [3]; [7],2.71%
same,OMA1 Activity,OMA1 [3]; [6],2.71%
antimycin A,OMA1 activity (fluorescence) in live cells,OMA1 [5],increased OMA1 activity
same,OMA1 activity (fluorescence) in live cells,OMA1 [5]; listed as AMA,induces OMA1 activity
pefabloc/TPCK,prevention of OMA1-dependent OPA1 cleavage,OMA1 [1],do not prevent OMA1-dependent OPA1 cleavage
